Results as given in paper PMC6701479, “KAP1 is an antiparallel dimer with a functional asymmetry” (Life Science Alliance, 2019).

Columns and labels:
Atto 532–labeled HP1α = Atto 532–labeled HP1α (UniProt P45973 1-191, Atto 532 on a tripeptide (Thz-G2-C3-CONH2, thiazolidine opened) joined to the C terminus; C-terminal amide); test: cell-based or functional assay
[1] = molecular target: the molecule itself; test: SEC-MALS; KAP1 constructs alone, 10 to 40 μM; Superose 6 10/300 GL; 20 mM Hepes pH 7.5, 300 mM NaCl, 2 mM TCEP

Atto 532–labeled HP1α, sequence (P45973 whole entry): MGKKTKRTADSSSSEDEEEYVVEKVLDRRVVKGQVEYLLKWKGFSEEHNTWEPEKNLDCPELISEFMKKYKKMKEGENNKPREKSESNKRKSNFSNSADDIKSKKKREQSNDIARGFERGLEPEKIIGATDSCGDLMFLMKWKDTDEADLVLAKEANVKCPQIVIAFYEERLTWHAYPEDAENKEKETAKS

| Binder | slow residence time τ_(off,2) of HP1α on H3K9me3 chromatin fibers (smTIRF), KAP1 50 to 400 nM (Atto 532–labeled HP1α) [fold] | stoichiometry N [1] |
| --- | --- | --- |
| KAP1 full-length protein (KAP1 FL, 1–835) (natural protein, human, UniProt Q13263 1-835, looked up, KAP1 (TRIM28, TIF1β), human, residues 1–835, complete full-length protein; His6 tag followed by a TEV protease cleavage site precedes the protein (pETDuet-1); no cleavage step is described; also called TIF1β; TRIM28; source: E. coli Rosetta (DE3) / Rosetta (DE3) pLys, purified (HisTrap, desalting, SEC)) MAASAAAASAAAASAASGSPGPGEGSAGGEKRSTAPSAAASASASAAASSPAGGGAEALELLEHCGVCRERLRPEREPRLLPCLHSACSACLGPAAPAAANSSGDGGAAGDGTVVDCPVCKQQCFSKDIVENYFMRDSGSKAATDAQDANQCCTSCEDNAPATSYCVECSEPLCETCVEAHQRVKYTKDHTVRSTGPAKSRDGERTVYCNVHKHEPLVLFCESCDTLTCRDCQLNAHKDHQYQFLEDAVRNQRKLLASLVKRLGDKHATLQKSTKEVRSSIRQVSDVQKRVQVDVKMAILQIMKELNKRGRVLVNDAQKVTEGQQERLERQHWTMTKIQKHQEHILRFASWALESDNNTALLLSKKLIYFQLHRALKMIVDPVEPHGEMKFQWDLNAWTKSAEAFGKIVAERPGTNSTGPAPMAPPRAPGPLSKQGSGSSQPMEVQEGYGFGSGDDPYSSAEPHVSGVKRSRSGEGEVSGLMRKVPRVSLERLDLDLTADSQPPVFKVFPGSTTEDYNLIVIERGAAAAATGQPGTAPAGTPGAPPLAGMAIVKEEETEAAIGAPPTATEGPETKPVLMALAEGPGAEGPRLASPSGSTSSGLEVVAPEGTSAPGGGPGTLDDSATICRVCQKPGDLVMCNQCEFCFHLDCHLPALQDVPGEEWSCSLCHVLPDLKEEDGSLSLDGADSTGVVAKLSPANQRKCERVLLALFCHEPCRPLHQLATDSTFSLDQPGGTLDLTLIRARLQEKLSPPYSSPQEFAQDVGRMFKQFNKLTEDKADVQSIIGLQRFFETRMNEAFGDTKFSAVLVEPPPMSLPGAGLSSQELSGGPGDGP | ~3 | 2 |
| ΔKAP1 (23–812) (domain or fragment, human, UniProt Q13263 23-812, looked up, His6 tag and TEV site precede the protein; no cleavage step is described; source: E. coli Rosetta (DE3) / Rosetta (DE3) pLys, purified (HisTrap, desalting, SEC)) GEGSAGGEKRSTAPSAAASASASAAASSPAGGGAEALELLEHCGVCRERLRPEREPRLLPCLHSACSACLGPAAPAAANSSGDGGAAGDGTVVDCPVCKQQCFSKDIVENYFMRDSGSKAATDAQDANQCCTSCEDNAPATSYCVECSEPLCETCVEAHQRVKYTKDHTVRSTGPAKSRDGERTVYCNVHKHEPLVLFCESCDTLTCRDCQLNAHKDHQYQFLEDAVRNQRKLLASLVKRLGDKHATLQKSTKEVRSSIRQVSDVQKRVQVDVKMAILQIMKELNKRGRVLVNDAQKVTEGQQERLERQHWTMTKIQKHQEHILRFASWALESDNNTALLLSKKLIYFQLHRALKMIVDPVEPHGEMKFQWDLNAWTKSAEAFGKIVAERPGTNSTGPAPMAPPRAPGPLSKQGSGSSQPMEVQEGYGFGSGDDPYSSAEPHVSGVKRSRSGEGEVSGLMRKVPRVSLERLDLDLTADSQPPVFKVFPGSTTEDYNLIVIERGAAAAATGQPGTAPAGTPGAPPLAGMAIVKEEETEAAIGAPPTATEGPETKPVLMALAEGPGAEGPRLASPSGSTSSGLEVVAPEGTSAPGGGPGTLDDSATICRVCQKPGDLVMCNQCEFCFHLDCHLPALQDVPGEEWSCSLCHVLPDLKEEDGSLSLDGADSTGVVAKLSPANQRKCERVLLALFCHEPCRPLHQLATDSTFSLDQPGGTLDLTLIRARLQEKLSPPYSSPQEFAQDVGRMFKQFNKLTEDKADVQSIIGLQRFFETRMNEAFGDTKFSAVLVEP |  | 2 |
| KAP1 RBCC domain (RBCC, 23–418) (domain or fragment, human, UniProt Q13263 23-418, looked up, KAP1 (TRIM28), human, RBCC domain (RING, B-box 1, B-box 2, coiled coil), residues 23–418; His6 tag and TEV site precede the protein; no cleavage step is described; also called N-terminal RBCC domain of KAP1; source: E. coli Rosetta (DE3) / Rosetta (DE3) pLys, purified (HisTrap, desalting, SEC)) GEGSAGGEKRSTAPSAAASASASAAASSPAGGGAEALELLEHCGVCRERLRPEREPRLLPCLHSACSACLGPAAPAAANSSGDGGAAGDGTVVDCPVCKQQCFSKDIVENYFMRDSGSKAATDAQDANQCCTSCEDNAPATSYCVECSEPLCETCVEAHQRVKYTKDHTVRSTGPAKSRDGERTVYCNVHKHEPLVLFCESCDTLTCRDCQLNAHKDHQYQFLEDAVRNQRKLLASLVKRLGDKHATLQKSTKEVRSSIRQVSDVQKRVQVDVKMAILQIMKELNKRGRVLVNDAQKVTEGQQERLERQHWTMTKIQKHQEHILRFASWALESDNNTALLLSKKLIYFQLHRALKMIVDPVEPHGEMKFQWDLNAWTKSAEAFGKIVAERPGTNST |  | 2 |
